Measured values: PMC7432094, “Flexible NAD^+ Binding in Deoxyhypusine Synthase Reflects the Dynamic Hypusine Modification of Translation Factor IF5A” (International Journal of Molecular Sciences, 2020)

Molecular target: the molecule itself
Assay: crystal structure; sitting drop, 20 °C, 100 mM phosphate-citrate pH 4.8, 32% ethanol, 5% PEG 1000; four PhoDHS molecules in the asymmetric unit, dimer of dimers with point group D2

B1: deoxyhypusine synthase from Pyrococcus horikoshii OT3 (enzyme, UniProt O50105 1-342, looked up)
chain: MKAKDIVLKKSEKIEGVEVKGPWLDDAQSLEEVVSYYYRIGFQATHLGRAIEIWRKVEEKRERGEEIRVFLGYTSNIISSGLREIIAWLVKEKKVDVIVTTAGGVEEDFIKSLKPFILGDWEVDDAELRKKGVNRIGNIFVPNDRYIEFEKYMIPFFERVLKIEEKLSRPLTASEFIYEMGRYMDEKLGKEKEKSVIYWAYKNNIPIFCPAITDGSIGDMLYFFKEERRDSRLIIDIANDIVKLNNLAITAKETASIILGGSLPKHAIINANLFRGGTDYAIYISTAVPWDGSLSGAPPREGVSWGKIKAKADYVEVWGDATLIFPILVWMVMKARGQGYAQ
notes: deoxyhypusine synthase (DHS), Pyrococcus horikoshii OT3, UniProtKB O50105, residues 1-342 (342 residues in all, 39 kDa); Homotetramer (dimer of dimers, D2); The His6 tag was removed with TEV protease at the site Glu-Asn-Leu-Tyr-Phe-Gln-Gly, so a residue of the site may remain at the N-terminus; also called PhoDHS; DHS; not shown: His6, N-terminal, cleaved
stoichiometry N: 4
